Here are results for ten molecules from patent publication US20230272056A1 (Merck Sharp & Dohme, published 2023).

The target of assay [1] is T1, human LAP-TGFB1 Fc fusion (human).
T1 construct: also called human LAP-TGFβ1-Fc; human LAP-TGFβ-Fc isoform 1
The experiment in a line: SPR, antigen-Fc captured, Fab analyte. The source says:
(§1) This Example describes the isoform specificity of the yeast display mutants to bind to human LAP-TGFβ isoforms 1, 2, and 3 using surface plasmon resonance. A Series S CM4 sensor chip (GE Healthcare, catalog BR100534) was immobilized with an anti-human Fc capture antibody following the kit protocol (GE Healthcare, catalog BR100839) on a Biacore T200 instrument with 1× HBS-EP+ (Teknova, catalog H8022). […] Binding specificity experiments between human LAP-TGFβ isoforms 2 and 3 and yeast display mutants were performed in 1× HBS-EP+ with 0.1 mg/mL BSA at 25° C. Approximately 20-40 RU amounts of human LAP-TGFβ2 and 3 were captured to the anti-human Fc surface followed by injection of 1000 nM Fab including a negative control 0 nM Fab. The binding data were double referenced by subtraction of signal from a reference (capture surface only) flow cell and the negative control 0 nM Fab injection. Binding rate constants were determined by fitting the data with a 1:1 binding model (GE Healthcare Biacore T200 Evaluation software 3.0).
On the technique in general: Surface plasmon resonance follows binding to a sensor surface in real time, without labels.

In assay [2] the target is T2, human LAP-TGFB3 Fc fusion (human).
T2 construct: also called human LAP-TGFβ3; LAP-TGFβ isoform 3
T2 sequence (chain, as listed by the source limits assumed): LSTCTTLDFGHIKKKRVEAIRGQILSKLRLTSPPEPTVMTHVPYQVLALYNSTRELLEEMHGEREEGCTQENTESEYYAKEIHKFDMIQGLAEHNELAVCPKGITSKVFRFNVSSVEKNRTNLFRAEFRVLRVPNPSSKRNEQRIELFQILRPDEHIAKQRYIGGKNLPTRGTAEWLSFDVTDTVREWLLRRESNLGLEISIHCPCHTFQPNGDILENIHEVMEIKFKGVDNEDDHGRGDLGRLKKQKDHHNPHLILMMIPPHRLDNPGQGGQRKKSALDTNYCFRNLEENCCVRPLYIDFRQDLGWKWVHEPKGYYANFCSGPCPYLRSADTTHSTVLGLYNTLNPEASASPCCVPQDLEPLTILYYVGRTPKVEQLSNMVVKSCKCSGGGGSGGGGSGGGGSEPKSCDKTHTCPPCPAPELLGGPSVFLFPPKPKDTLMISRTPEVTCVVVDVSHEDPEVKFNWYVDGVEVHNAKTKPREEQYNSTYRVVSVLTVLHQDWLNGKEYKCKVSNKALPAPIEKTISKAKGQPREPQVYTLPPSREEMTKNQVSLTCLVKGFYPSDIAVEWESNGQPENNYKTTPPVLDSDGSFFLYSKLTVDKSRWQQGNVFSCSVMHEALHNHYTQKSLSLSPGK
The experiment in a line: SPR.
From the text: as §1

The target in assay [3] is T3, human LAP-TGFB2 Fc fusion (human).
T3 construct: also called human LAP-TGFβ2; LAP-TGFβ isoform 2
T3 sequence (chain, as listed by the source limits assumed): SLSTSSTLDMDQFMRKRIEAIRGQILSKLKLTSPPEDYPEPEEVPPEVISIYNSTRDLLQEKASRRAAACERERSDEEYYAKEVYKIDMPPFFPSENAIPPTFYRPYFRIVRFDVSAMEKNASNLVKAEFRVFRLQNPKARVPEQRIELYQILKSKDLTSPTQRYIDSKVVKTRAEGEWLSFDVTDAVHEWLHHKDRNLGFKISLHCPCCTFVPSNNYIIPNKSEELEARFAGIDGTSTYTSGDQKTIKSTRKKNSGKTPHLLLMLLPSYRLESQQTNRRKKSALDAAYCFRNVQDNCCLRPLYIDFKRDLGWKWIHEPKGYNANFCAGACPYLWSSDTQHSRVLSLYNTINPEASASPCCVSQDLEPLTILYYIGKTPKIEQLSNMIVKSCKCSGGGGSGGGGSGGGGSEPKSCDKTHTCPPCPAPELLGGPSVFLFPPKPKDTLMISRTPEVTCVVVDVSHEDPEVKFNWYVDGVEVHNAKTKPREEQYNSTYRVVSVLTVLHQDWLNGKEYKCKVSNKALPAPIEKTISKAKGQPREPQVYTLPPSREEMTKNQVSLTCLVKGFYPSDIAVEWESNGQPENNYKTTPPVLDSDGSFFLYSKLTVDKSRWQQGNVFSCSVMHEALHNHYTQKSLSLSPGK
In words: SPR.
From the text: as §1

T1 sequence (chain, as listed by the source limits assumed): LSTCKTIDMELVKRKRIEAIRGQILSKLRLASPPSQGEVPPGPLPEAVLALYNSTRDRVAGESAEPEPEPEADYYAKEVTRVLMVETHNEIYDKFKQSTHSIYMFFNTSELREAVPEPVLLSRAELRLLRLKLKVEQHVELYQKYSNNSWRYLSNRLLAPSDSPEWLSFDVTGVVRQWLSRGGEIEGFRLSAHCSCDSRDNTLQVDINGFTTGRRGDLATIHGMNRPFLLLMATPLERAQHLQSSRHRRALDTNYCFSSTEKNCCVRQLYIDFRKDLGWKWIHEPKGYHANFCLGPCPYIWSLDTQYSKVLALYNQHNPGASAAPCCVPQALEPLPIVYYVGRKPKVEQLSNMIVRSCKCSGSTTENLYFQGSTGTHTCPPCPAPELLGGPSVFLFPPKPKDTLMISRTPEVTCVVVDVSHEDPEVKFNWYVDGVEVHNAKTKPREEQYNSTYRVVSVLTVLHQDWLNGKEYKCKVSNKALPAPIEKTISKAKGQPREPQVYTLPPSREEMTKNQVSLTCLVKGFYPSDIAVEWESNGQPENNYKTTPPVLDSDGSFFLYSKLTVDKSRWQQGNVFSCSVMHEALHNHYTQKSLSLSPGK

B1: 73BJN (Fab, V domains shown)
VH: EVQLVQSGAEVKKPGASVKVSCKASGYTFTSYDMHWVRQAPGQGLEWMGRIDPQSGGIKYAQKFQGRATLTVDTSTSTAYMELSRLRSDDTAVYYCARWDYGGYFDVWGQGTLVTVSS
VL: DIQMTQSPSSLSASVGDRVTITCRASQDIYNYLNWYQQKPGKAVKLLIYYTSRLHSGVPSRFSGSGSGTDYTLTISSLQPEDFATYFCQQGDTLPWTFGQGTKLEIKR
notes: also called VH W33D / VL T30Y (73BJN)
The term Kd denotes the free concentration of one partner at which half of the binding sites on the other are occupied at equilibrium, for simple one-to-one binding. A higher Kd goes with lower affinity. A word on the koff: it is the first-order rate constant of dissociation. As a reminder, the kon is a measure of how fast the partners come together. Low readings indicate slow association, high ones fast association. As for B1, in assay [1], the “Fold improvement in KD” value is 133 fold, the Kd came out at 0.601 nM, the koff was 0.0031 s⁻¹ and the kon was determined as 5.15e+06 M⁻¹ s⁻¹. The binding result in assay [2] was “no binding (tested: 1000 nM Fab)”. The binding result in assay [3] is “no binding (tested: 1000 nM Fab)”.

B2: 75BJN (Fab, V domains shown)
VH: EVQLVQSGAEVKKPGASVKVSCKASGYTFTKYDMHWVRQAPGQGLEWMGRIDPQDGGFKYAQKFQGRATLTVDTSTSTAYMELSRLRSDDTAVYYCARWDYGGYFDVWGQGTLVTVSS
VL: DIQMTQSPSSLSASVGDRVTITCRASQDIFNYLNWYQQKPGKAVKLLIYYTSYLHSGVPSRFSGSGSGTDYTLTISSLQPEDFATYFCQQGDELPWTFGQGTKLEIKR
notes: Label says VL T30Y but the printed LCDR1 reads F at 30; also called VH S31K W33D S55D I58F / VL T30Y R53Y T93E (75BJN)
As to B2, in assay [1], the “Fold improvement in KD” value was 1180 fold. The binding result in assay [2] and in assay [3] was “no binding (tested: 1000 nM Fab)” each time.

B3: 74BJN (Fab, V domains shown)
VH: EVQLVQSGAEVKKPGASVKVSCKASGYTFTYYDLHWVRQAPGQGLEWMGRIDPQSGGIKYAQKFQGRATLTVDTSTSTAYMELSRLRSDDTAVYYCARWDYGGYFDVWGQGTLVTVSS
VL: DIQMTQSPSSLSASVGDRVTITCRASQDIYNYLNWYQQKPGKAVKLLIYYTSRLHSGVPSRFSGSGSGTDYTLTISSLQPEDFATYFCQQGDDIPWTFGQGTKLEIKR
notes: also called VH S31Y W33D M34L / VL T30Y T93D L94I (74BJN)
Consider B3, for which, in assay [1], the “Fold improvement in KD” value stood at 196 fold, the Kd worked out at 0.408 nM, the koff amounted to 0.00181 s⁻¹ and the kon worked out at 4.45e+06 M⁻¹ s⁻¹. In addition, the binding result in assay [2] is on record as “no binding (tested: 1000 nM Fab)”. In assay [3], the binding result is recorded as “no binding (tested: 1000 nM Fab)”.

B4: 77BJN (Fab, V domains shown)
VH: EVQLVQSGAEVKKPGASVKVSCKASGYTFTSYDMHWVRQAPGQGLEWMGRIDPQSGGVKYAQKFQGRATLTVDTSTSTAYMELSRLRSDDTAVYYCARWDYGGYFDVWGQGTLVTVSS
VL: DIQMTQSPSSLSASVGDRVTITCRASQDIYNYLNWYQQKPGKAVKLLIYYTSVLHSGVPSRFSGSGSGTDYTLTISSLQPEDFATYFCQQGDELPWTFGQGTKLEIKR
notes: also called VH W33D I58V / VL T30Y R53V T93E (77BJN)
In the case of B4, in assay [1], the “Fold improvement in KD” value is 1540 fold, the Kd worked out at 0.0517 nM, the koff was determined as 0.00027 s⁻¹ and the kon worked out at 5.22e+06 M⁻¹ s⁻¹. Moreover, the binding result in assay [2] is reported as “no binding (tested: 1000 nM Fab)”. Also, the binding result in assay [3] was “no binding (tested: 1000 nM Fab)”.

B5: 82BJN (Fab, V domains shown)
VH: EVQLVQSGAEVKKPGASVKVSCKASGYTFTSYYMNWVRQAPGQGLEWMGRIDPQSGGVKYAQKFQGRATLTVDTSTSTAYMELSRLRSDDTAVYYCARWHYGGQFDVWGQGTLVTVSS
VL: DIQMTQSPSSLSASVGDRVTITCRASQDIYNYLNWYQQKPGKAVKLLIYYTSGLHSGVPSRFSGSGSGTDYTLTISSLQPEDFATYFCQQGDTLPWTFGQGTKLEIKR
notes: also called VH W33Y H35N I58V D100H Y104Q / VL T30Y R53G (82BJN)
For the molecule B5, in assay [1], the “Fold improvement in KD” value is 8610 fold, binding was characterised by a dissociation constant (Kd) of 0.00928 nM, the koff amounted to 2.6e-05 s⁻¹ and the kon came to 2.81e+06 M⁻¹ s⁻¹. Also, in assay [2], the binding result is “no binding (tested: 1000 nM Fab)”. Moreover, the binding result in assay [3] is listed as “no binding (tested: 1000 nM Fab)”.

B6: 76BJN (Fab, V domains shown)
VH: EVQLVQSGAEVKKPGASVKVSCKASGYTFTYYDMHWVRQAPGQGLEWMGRIDPYDGDIKYAQKFQGRATLTVDTSTSTAYMELSRLRSDDTAVYYCARWDYGGYFDVWGQGTLVTVSS
VL: DIQMTQSPSSLSASVGDRVTITCRASQDIYNYLNWYQQKPGKAVKLLIYYTSLLHSGVPSRFSGSGSGTDYTLTISSLQPEDFATYFCQQGDELPWTFGQGTKLEIKR
notes: also called VH S31Y W33D Q54Y S55D G57D / VL T30Y R53L T93E (76BJN)
As for B6, in assay [1], the “Fold improvement in KD” value was 768 fold, the Kd is 0.104 nM, the koff stood at 0.000186 s⁻¹ and the on-rate (kon) was determined as 1.8e+06 M⁻¹ s⁻¹. The binding result in assay [2] is on record as “no binding (tested: 1000 nM Fab)”. Also, the binding result in assay [3] is on record as “no binding (tested: 1000 nM Fab)”.

B7: 81BJN (Fab, V domains shown)
VH: EVQLVQSGAEVKKPGASVKVSCKASGYTFTEYDMHWVRQAPGQGLEWMGRIDPQSGGIRYAQKFQGRATLTVDTSTSTAYMELSRLRSDDTAVYYCARWDYGGQFDAWGQGTLVTVSS
VL: DIQMTQSPSSLSASVGDRVTITCRASQDIYNYLNWYQQKPGKAVKLLIYYTSVLHSGVPSRFSGSGSGTDYTLTISSLQPEDFATYFCQQGDTLPWTFGQGTKLEIKR
notes: also called VH S31E W33D K59R Y104Q V107A / VL T30Y R53V (81BJN)
Regarding B7, in assay [1], the “Fold improvement in KD” value was determined as 12700 fold, the Kd is 0.00629 nM, the koff stood at 2.56e-05 s⁻¹ and the kon came to 4.08e+06 M⁻¹ s⁻¹. The binding result in assay [2] was “no binding (tested: 1000 nM Fab)”. Further, the binding result in assay [3] was “no binding (tested: 1000 nM Fab)”.

B8: 80BJN (Fab, V domains shown)
VH: EVQLVQSGAEVKKPGASVKVSCKASGYTFTSYDMHWVRQAPGQGLEWMGRIDPQSGGIRYAQKFQGRATLTVDTSTSTAYMELSRLRSDDTAVYYCARWDYGGQFDVWGQGTLVTVSS
VL: DIQMTQSPSSLSASVGDRVTITCRASQDIYNYLNWYQQKPGKAVKLLIYYTSILHSGVPSRFSGSGSGTDYTLTISSLQPEDFATYFCQQGDTLPWTFGQGTKLEIKR
notes: also called VH W33D K59R Y104Q / VL T30Y R53I (80BJN)
In the case of B8, in assay [1], the “Fold improvement in KD” value came out at 13200 fold, binding was put at a Kd of 0.00607 nM, the koff is 2.52e-05 s⁻¹ and the kon amounted to 4.15e+06 M⁻¹ s⁻¹. In addition, the binding result in assay [2] is “no binding (tested: 1000 nM Fab)”. Besides, the binding result in assay [3] is listed as “no binding (tested: 1000 nM Fab)”.

B9: 79BJN (Fab, V domains shown)
VH: EVQLVQSGAEVKKPGASVKVSCKASGYTFTSYDMHWVRQAPGQGLEWMGRIDPQDGDVKYAQKFQGRATLTVDTSTSTAYMELSRLRSDDTAVYYCARWDYGGYFDVWGQGTLVTVSS
VL: DIQMTQSPSSLSASVGDRVTITCRASQDIYNYLNWYQQKPGKAVKLLIYYTSGLHSGVPSRFSGSGSGTDYTLTISSLQPEDFATYFCQQGDELPWTFGQGTKLEIKR
notes: also called VH W33D S55D S57D I58V / VL T30Y R53G T93E (79BJN)
B9: in assay [1], the “Fold improvement in KD” value worked out at 3630 fold, the Kd was 0.022 nM, the koff is 0.000128 s⁻¹ and the kon worked out at 5.84e+06 M⁻¹ s⁻¹. Moreover, the binding result in assay [2] is “no binding (tested: 1000 nM Fab)”. The binding result in assay [3] was “no binding (tested: 1000 nM Fab)”.

B10: 78BJN (Fab, V domains shown)
VH: EVQLVQSGAEVKKPGASVKVSCKASGYTFTSYDMHWVRQAPGQGLEWMGRIDPQSGGIRYAQKFQGRATLTVDTSTSTAYMELSRLRSDDTAVYYCARWDYGGYFDVWGQGTLVTVSS
VL: DIQMTQSPSSLSASVGDRVTITCRASQDIYNYLNWYQQKPGKAVKLLIYYTSNLHSGVPSRFSGSGSGTDYTLTISSLQPEDFATYFCQQGDELPWTFGQGTKLEIKR
notes: also called VH W33D K59R / VL T30Y R53N T93E (78BJN)
Take B10: in assay [1], the “Fold improvement in KD” value is 1120 fold; the affinity, expressed as Kd, was 0.0713 nM; the koff stood at 0.000393 s⁻¹; the kon was found to be 5.52e+06 M⁻¹ s⁻¹. Further, the binding result in assay [2] was “no binding (tested: 1000 nM Fab)”. Further, in assay [3], the binding result is “no binding (tested: 1000 nM Fab)”.
